Test results: patent publication US20250304697A1 (ONECHAIN IMNUNOTHERAPEUTICS S L, published 2025)

Assays:
[1] = target: mCAR-CD1a (murine CAR-CD1a, scFv derived from the NA1/34.HLK clone) expressed on transduced T cells; assay: FACS of mCD1a-CAR-T cells incubated with rCD1a (25 nM by the legend paragraph 24, 200 nM by Example 11 paragraph 349), detection with anti-HIS-APC; UT cells in the same gate 0,2% [cont.) B]
[2] = target: T1, human recombinant protein extracellular domain of CD1a (rCD1a), produced with a 6xHis tag as a dimer with … (human, UniProt P06126 17-300; P61769 21-119); assay: SPR, ratio of KD against mscFv-CD1a
T1 construct: Used soluble in flow cytometry on CAR-T cells (detected with anti-HIS-APC) and immobilized on CM5 chips in SPR; also called rCD1a-HIS; recombinant protein CD1a; not shown: 6xHis tag

[3] = target: T1, human recombinant protein extracellular …; assay: SPR, Biacore T-200, rCD1a immobilized on CM5 chip, soluble scFv, 1:1 binding fit, 298 K

% of rCD1a positive bound cells [1] [%] | fold higher affinity than the murine scFv (mscFv-CD1a) [2] [fold] | Kd [3] [nM] | koff [3] [s⁻¹] | kon [3] [M⁻¹ s⁻¹] | Molecule
23.3 |  |  |  |  | human recombinant protein extracellular domain of CD1a (rCD1a), produced with a 6xHis tag as a dimer with b2-microglobulin (hB2M) (from UniProt P06126 17-300; P61769 21-119)
 | 2.4 | 21 | 0.0012 | 56300 | h(2)scFv-CD1a: recombinant humanized (H2 version) scFv anti-CD1a with a 6xHis tag, from XtenCHO cells (scFv, also called hscFv-CD1a; humanized2_scFv-anti-CD1a; not shown: 6xHis tag) scFv: QVQLQQSGAEVKKPGASVKVSCKASGYAFSTYTMHWVRQAPGQGLEWMGYINPNSASTSYAQKFQGRVTMTADKSTNTAYMELSSLRSEDTAVYYCARGFYTMDYWGQGTLVTVSSGGGGSGGGGSGGGGSGGGGSRDIQMTQSPSSLSASVGDRVTITCQASQDINKYIAWYQFKPGKGPRLLIHYTSTLEPAIPSRFSGSGSGREYTFTISSLQPEDIATYYCLHYDNLPWTFGGGTKVEIKRA
 |  | 50 | 0.00121 | 24600 | mscFv-CD1a: recombinant murine scFv anti-CD1a with a 6xHis tag, from XtenCHO cells (scFv) scFv: QVQLQQSGAELARPGASVKMSCKASGYAFSTYTMHWVKQRPRQGLEWIGYINPNSASTSYNENFKDKATLTADKSSNTAYMHLSSLTSEDSAVYYCARGFYTMDYWGQGTSVTVSSGGGGSGGGGSGGGGSGGGGSRDIQMTQSPSSLSASLGGKVTITCQASQDINKYIAWYQFKPGKGPRLLIHYTSTLQPAIPSRFSGSGSGREYSFSISNLEPEDIATYYCLHYDNLPWTFGGGTKLEIKRAHHHHHH
